Measured values as given in US20250163182A1 (Janssen / Centocor, published 2025).

Legend:
[1] = target: T1, human ENPP3 (human, UniProt O14638 46-875, limits assumed); assay: affinity; method and construct not stated
T1 construct: neither the construct nor the method is stated; also called ectonucleotide pyrophosphatase/phosphodiesterase family member 3
T1 sequence (looked up): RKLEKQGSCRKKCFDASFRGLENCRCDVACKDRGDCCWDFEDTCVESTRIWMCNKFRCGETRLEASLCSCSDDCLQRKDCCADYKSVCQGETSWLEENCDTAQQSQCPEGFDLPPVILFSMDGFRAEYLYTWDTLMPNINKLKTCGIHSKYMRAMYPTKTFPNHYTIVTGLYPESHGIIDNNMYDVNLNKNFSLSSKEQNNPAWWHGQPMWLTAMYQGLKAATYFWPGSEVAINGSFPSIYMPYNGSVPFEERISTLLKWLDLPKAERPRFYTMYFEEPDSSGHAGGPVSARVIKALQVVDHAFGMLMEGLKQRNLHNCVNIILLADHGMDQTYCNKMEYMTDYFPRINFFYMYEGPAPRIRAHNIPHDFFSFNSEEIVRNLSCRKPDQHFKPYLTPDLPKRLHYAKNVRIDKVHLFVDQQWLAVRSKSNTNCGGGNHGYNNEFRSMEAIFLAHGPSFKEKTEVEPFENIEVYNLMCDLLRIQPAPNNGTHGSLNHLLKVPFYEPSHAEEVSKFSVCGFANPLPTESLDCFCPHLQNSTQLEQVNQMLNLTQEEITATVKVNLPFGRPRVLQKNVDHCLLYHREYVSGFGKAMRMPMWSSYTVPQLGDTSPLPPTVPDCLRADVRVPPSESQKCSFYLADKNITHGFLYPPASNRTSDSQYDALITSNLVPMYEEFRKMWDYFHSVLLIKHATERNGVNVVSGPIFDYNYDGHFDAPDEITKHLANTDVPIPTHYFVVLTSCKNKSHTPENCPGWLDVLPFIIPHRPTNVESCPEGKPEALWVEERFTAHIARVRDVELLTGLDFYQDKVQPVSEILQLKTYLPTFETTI

[2] = target: T2, human CD3 (human, UniProt P07766 23-126, limits assumed); assay: affinity; method and construct not stated
T2 construct: also called CD3 epsilon
T2 sequence (P07766 23-126 limits assumed): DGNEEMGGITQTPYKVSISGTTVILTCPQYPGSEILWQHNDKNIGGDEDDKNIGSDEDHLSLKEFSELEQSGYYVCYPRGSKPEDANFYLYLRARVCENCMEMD

[3] = target: T3, human CD3 on T cells (human, UniProt P07766 23-207); assay: flow cytometry on human T cells, donor 110040278
T3 construct: on T cells it stands in the TCR-CD3 complex; also called human T cells; T cells isolated from healthy human donors
T3 sequence (P07766 23-207 limits assumed): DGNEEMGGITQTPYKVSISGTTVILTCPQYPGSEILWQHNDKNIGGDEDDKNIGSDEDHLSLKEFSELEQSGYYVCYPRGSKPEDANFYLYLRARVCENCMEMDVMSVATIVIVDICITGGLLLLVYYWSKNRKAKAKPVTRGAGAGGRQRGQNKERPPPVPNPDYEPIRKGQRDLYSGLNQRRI

[4] = target: T3, human CD3 on T cells; assay: flow cytometry on human T cells, donor 110044049
[5] = target: ENPP2 on CHOK1 cells (UniProt Q13822 36-863); assay: flow cytometry on CHO cells overexpressing ENPP2
[6] = target: T4, ENPP1 on CHOK1 cells (UniProt P22413 1-925, limits assumed); assay: flow cytometry on CHO cells overexpressing ENPP1
T4 construct: whole, on cells; also called ectonucleotide pyrophosphatase/phosphodiesterase family member 1; CHO ENPP1 OE
T4 sequence (looked up): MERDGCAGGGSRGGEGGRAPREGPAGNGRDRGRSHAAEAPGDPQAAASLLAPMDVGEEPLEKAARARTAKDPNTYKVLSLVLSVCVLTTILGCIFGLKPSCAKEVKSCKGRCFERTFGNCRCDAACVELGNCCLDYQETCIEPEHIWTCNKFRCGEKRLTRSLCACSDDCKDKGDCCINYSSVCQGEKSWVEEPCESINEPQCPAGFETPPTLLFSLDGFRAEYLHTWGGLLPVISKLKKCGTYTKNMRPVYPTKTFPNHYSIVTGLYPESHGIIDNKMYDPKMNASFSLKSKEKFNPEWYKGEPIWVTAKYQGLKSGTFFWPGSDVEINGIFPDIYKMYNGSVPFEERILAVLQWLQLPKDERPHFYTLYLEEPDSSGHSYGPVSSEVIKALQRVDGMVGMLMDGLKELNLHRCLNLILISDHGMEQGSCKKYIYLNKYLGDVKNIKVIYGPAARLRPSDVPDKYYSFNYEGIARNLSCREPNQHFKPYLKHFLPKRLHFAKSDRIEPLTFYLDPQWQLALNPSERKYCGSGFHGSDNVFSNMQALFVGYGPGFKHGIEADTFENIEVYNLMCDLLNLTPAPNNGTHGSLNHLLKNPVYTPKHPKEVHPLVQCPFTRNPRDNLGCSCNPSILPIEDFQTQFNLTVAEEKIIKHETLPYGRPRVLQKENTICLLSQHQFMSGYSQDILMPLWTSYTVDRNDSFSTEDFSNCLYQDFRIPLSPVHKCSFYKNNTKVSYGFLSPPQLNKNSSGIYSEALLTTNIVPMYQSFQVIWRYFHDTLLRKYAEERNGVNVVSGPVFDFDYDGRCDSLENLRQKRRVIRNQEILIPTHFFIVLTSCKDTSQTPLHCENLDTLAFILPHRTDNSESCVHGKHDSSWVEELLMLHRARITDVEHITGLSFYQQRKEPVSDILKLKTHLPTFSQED

[7] = target: T3, human CD3 on T cells; assay: flow cytometry on human T cells, donor 110042593

Kd [1]: 0.92 nM | Kd [2]: 110 nM | EC50 [3]: 253 nM | EC50 [4]: 188 nM | binding result [5]: no binding (tested: 100 nM) | binding result [6]: no binding (tested: 100 nM) | EC50 [7]: 146 nM
B1: NPP3B815 (bispecific antibody, human IgG1, kappa, L234A L235A)
heavy 1: EIVLTQSPATLSASPGERVTLSCSASSSVSYMNWYQQKPGCAPRRWIYDSSKLASGVPARFSGSGSGRDYTLTISSLEPEDFAVYYCQQWSRNPPTFGGGTKVEIKGGGSGGSGGCPPCGGSGGQVQLVQSGAEVKKPGSSVKVSCKASGYTFTRSTMHWVKQAPGQGLEWIGYINPSSAYTNYNQKFQGRVTLTADKSTSTAYMELSSLRSEDTAVYYCASPQVHYDYAGFPYWGCGTLVTVSSEPKSSDKTHTCPPCPAPEAAGGPSVFLFPPKPKDTLMISRTPEVTCVVVSVSHEDPEVKFNWYVDGVEVHNAKTKPREEQYNSTYRVVSVLTVLHQDWLNGKEYKCKVSNKALPAPIEKTISKAKGQPREPQVYTLPPSREEMTKNQVSLWCLVKGFYPSDIAVEWESNGQPENNYKTTPPVLDSDGSFFLYSKLTVDKSRWQQGNVFSCSVMHEALHNHYTQKSLSLSPGK
heavy 2: EVQLVESGGGRVKPGGSLRLSCAASGFTFSDYSMNWVRQAPGKGLEWVSSISSISSYVKYADSVKGRFTMSRDNAKNSLFLQMNSLRDEDMAVYYCARGHYFDYWGQGTLVTVSSASTKGPSVFPLAPSSKSTSGGTAALGCLVKDYFPEPVTVSWNSGALTSGVHTFPAVLQSSGLYSLSSVVTVPSSSLGTQTYICNVNHKPSNTKVDKKVEPKSCDKTHTCPPCPAPEAAGGPSVFLFPPKPKDTLMISRTPEVTCVVVSVSHEDPEVKFNWYVDGVEVHNAKTKPREEQYNSTYRVVSVLTVLHQDWLNGKEYKCKVSNKALPAPIEKTISKAKGQPREPQVYTLPPSREEMTKNQVSLSCAVKGFYPSDIAVEWESNGQPENNYKTTPPVLDSDGSFFLVSKLTVDKSRWQQGNVFSCSVMHEALHNRFTQKSLSLSPGK
light: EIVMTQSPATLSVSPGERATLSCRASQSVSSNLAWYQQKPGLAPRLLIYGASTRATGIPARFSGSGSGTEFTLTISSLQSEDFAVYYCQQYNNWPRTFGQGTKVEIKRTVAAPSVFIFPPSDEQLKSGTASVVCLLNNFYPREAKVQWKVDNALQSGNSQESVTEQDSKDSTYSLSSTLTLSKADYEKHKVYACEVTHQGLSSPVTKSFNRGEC
notes: HC2 carries the NPP3B56 Fab and the hole T366S, L368A, Y407V; Fc with L234A, L235A, D265S; The CPPC linker cysteines form disulfides with engineered Cys at L42 and H105 (Chothia); also called NPP3B56×CD3B2030-N106A; ENPP3×CD3 (NPP3B815)
